Experimental data from US20120171210A1, “METHODS AND COMPOSITIONS FOR INHIBITING C-MET DIMERIZATION AND ACTIVATION” (Genentech, Inc., priority 2003, published 2012).

Legend:
[1] = biological target: T1, Met extracellular domain deletion mutants (EC-WT, ΔS, ΔP, ΔIPT3, TM) (Homo sapiens, UniProt P08581); test: Co-immunoprecipitation of HGF / scHGF with V5/His-tagged Met deletion mutants; type: binding; details: lysates of transfected 293 cells incubated with 5 μg HGF or scHGF, HGF α chain immunoblot
T1 construct: Sub-domain deletions of the Met extracellular domain were made from the N-terminus and tagged after the TM region with V5/His; expressed in transfected cells; host or cells: 293 cells (lysates)
T1 sequence (P08581 308-959 limits assumed, stated change not applied, one chain of several): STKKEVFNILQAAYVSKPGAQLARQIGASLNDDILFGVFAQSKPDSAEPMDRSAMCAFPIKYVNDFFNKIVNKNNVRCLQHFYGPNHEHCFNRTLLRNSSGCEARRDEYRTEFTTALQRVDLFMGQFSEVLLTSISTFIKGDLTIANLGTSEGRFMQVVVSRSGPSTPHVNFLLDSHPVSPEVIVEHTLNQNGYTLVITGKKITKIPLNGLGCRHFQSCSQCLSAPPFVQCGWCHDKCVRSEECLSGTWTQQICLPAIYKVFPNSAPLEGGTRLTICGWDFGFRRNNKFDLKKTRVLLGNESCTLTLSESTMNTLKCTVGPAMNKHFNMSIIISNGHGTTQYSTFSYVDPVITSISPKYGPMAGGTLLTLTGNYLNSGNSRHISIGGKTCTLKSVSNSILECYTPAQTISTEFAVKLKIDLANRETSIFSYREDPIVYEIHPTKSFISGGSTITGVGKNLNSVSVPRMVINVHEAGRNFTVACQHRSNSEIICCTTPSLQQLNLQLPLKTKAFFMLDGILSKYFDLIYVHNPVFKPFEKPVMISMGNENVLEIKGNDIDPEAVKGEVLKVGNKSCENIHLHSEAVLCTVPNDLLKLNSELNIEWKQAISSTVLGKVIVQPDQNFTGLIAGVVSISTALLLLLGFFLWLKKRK
Excerpt: Extracellular sub-domain deletions of c-Met were constructed using conventional PCR methods. N-terminal primers containing the start of Sema, PSI, first IPT, or fourth IPT domains flanked by a KpnI site were paired with a C-terminal primer up to Met residue 959 flanked by a StuI site. c-Met was used as template and the PCR fragments for each clone were inserted into pCR-Blunt II-TOPO vector using the Zero Blunt TOPO PCR cloning kit (Invitrogen) according to manufacturer's instructions. The clones were confirmed by DNA sequencing. The constructs were then subcloned into pcDNA3.1 V5/His vector (Invitrogen) via KpnI and EcoRV to add a tag at the C-terminus. The signal peptide of Met was added via the HindIII and KpnI sites at the N-terminus of each clone. Each clone was digested with HindIII and EcoRV and subcloned into pRK5TKneo vector via HindIII and PmeI. For EC-WT Flag and EC-WT V5/His clones, an N-terminal primer containing a HindIII site was paired with a C-terminal primer up to Met residue 595 flanked by a StuI site. EC-WT V5/His was subcloned via HindIII/StuI into the HindIII/EcoRV sites of pcDNA3.1 V5/His, and then subcloned into pRK5TKneo as described above. For EC-WT Flag, the PCR fragment was ligated to pCR-Blunt II-TOPO vector. […]
Cell lines were obtained from American Type Culture Collection (ATCC). […] Proteins were detected by enhanced chemiluminescence (ECL-Plus, Amersham). […]

[2] = test system: recombinant EC-Met and Sema domain proteins; test: Coimmunoprecipitation with recombinant EC-Met and Sema domain proteins; type: binding; details: data not shown
H441 cells = test: Scrape assay (Met mediated cell motility); type: cell-based, Human; details: H441, 100 ng/ml HGF, serum-free
Procedure: H441 cells were seeded at a density of 4.5×10^4 cells/well in a 96-well plate with 10% FBS in 50:50 DMEM/F12. The next day, a single scrape was made in the confluent monolayer in each well as described previously (Lorenzato et al., 2002). The cells were then incubated with media containing 0.5% BSA and treated with mock, 10 μg/ml 5D5, 10 μg/ml Sema, or 100 ng/ml HGF. The scrape was monitored and photographed daily. Representative results are shown for Day 2.
H441 cells were used in a scrape assay as a measure of Met mediated cell motility (Lorenzato et al., 2002). H441 cells grown to high density were scraped in each well on day 0 and maintained in serum-free media containing 0.5% BSA for the duration of the experiment (FIG. 6). Cells were either treated with 10 μg/ml rSema or 5D5 or 100 ng/ml HGF as a positive control or mock treated. […] These observations were consistent in four separate experiments.
To examine the effect of rSema on cell motility in the presence of ligand, cells were treated with 0, 0.1, 0.5, or 5 μg/ml rSema plus 20 ng/ml HGF. Cells treated with HGF alone closed the gap completely by Day 1.

Met [3] = biological target: T2, Met (Homo sapiens, UniProt P08581); details: Lokker et al., 1992; cited from earlier work
Target sequence in this assay (P08581 25-1390): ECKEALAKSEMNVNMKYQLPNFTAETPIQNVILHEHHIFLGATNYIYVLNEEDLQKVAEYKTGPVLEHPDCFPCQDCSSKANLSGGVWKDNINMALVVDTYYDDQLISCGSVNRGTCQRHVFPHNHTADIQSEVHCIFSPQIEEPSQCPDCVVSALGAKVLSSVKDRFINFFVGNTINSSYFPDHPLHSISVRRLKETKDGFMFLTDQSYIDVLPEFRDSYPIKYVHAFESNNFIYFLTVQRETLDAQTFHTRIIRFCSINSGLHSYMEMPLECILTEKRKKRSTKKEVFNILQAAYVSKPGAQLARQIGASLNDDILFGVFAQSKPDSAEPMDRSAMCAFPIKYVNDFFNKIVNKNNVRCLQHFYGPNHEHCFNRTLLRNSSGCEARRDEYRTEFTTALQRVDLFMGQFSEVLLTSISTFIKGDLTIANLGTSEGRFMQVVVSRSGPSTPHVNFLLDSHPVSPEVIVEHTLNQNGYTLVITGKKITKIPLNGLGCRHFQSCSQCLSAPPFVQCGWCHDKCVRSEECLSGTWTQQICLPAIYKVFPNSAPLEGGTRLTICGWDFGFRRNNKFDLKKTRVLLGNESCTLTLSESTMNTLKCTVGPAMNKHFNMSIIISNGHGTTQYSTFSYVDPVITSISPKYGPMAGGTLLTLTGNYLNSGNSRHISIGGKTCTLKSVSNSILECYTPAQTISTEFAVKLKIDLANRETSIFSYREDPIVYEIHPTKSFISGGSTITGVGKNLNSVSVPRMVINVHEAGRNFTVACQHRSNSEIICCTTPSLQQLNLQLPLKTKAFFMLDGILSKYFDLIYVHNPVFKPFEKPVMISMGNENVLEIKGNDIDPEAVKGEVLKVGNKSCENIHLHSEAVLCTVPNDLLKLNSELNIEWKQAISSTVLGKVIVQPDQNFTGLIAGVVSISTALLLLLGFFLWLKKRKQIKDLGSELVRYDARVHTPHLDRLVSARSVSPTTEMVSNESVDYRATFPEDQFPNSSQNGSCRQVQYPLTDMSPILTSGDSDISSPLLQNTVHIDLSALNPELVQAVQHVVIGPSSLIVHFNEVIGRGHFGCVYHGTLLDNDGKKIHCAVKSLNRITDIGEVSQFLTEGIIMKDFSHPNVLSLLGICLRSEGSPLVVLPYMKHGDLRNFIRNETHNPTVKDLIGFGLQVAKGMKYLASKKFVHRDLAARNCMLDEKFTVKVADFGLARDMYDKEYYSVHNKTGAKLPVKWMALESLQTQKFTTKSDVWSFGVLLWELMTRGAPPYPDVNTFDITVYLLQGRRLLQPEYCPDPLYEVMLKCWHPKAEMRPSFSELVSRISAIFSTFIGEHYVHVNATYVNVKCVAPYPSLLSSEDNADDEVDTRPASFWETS

MAPK = MAPK phosphorylation in A549 cells (immunoblot); type: cell-based, Human; details: A549 cells transfected with Met deletion mutants, vs mock
Procedure: (§1) Cell lines were obtained from American Type Culture Collection (ATCC). 293 cells were maintained in DMEM supplemented with 10% FBS (Sigma), penicillin/streptomycin (GIBCO), and glutamine A549, H441, and MDA-MB-435 cells were maintained in 50:50 DMEM/F12 (Cellgro) supplemented with 10% FBS, penicillin/streptomycin, and glutamine Cells were transfected with 1-12 μg of the indicated constructs using Lipofectamine 2000 (Invitrogen) according to manufacturer's instructions. Twenty-four hrs later cells were harvested with 1% NP40 lysis buffer containing Complete protease inhibitor cocktail tablet and phosphatase inhibitor cocktail 2 (Roche and Sigma, respectively). For Met tyrosine phosphorylation and MAPK phosphorylation studies, cells were serum-starved for 2 hr with 0.5% BSA. Cells treated with 10 μg/ml anti-Met 5D5-Fab or rSema were incubated for an additional 1 hr prior to lysis. Cell debris was centrifuged and the supernatant was precleared with Protein A Sepharose (Sigma) or Protein G-Plus agarose beads (Santa Cruz) for 1 hr. 500 μg of lysates was then immunoprecipitated with 10 μg 5D5 antibody (Genentech) or 35 ul of Met (C-28) agarose conjugate (Santa Cruz) overnight at 4° C. with rotation. For HGF binding studies, 500 μg of lysates were incubated with 5 μg scHGF or HGF followed by immunoprecipitation with 1 μg of V5 antibody. Protein A or G beads were added for an additional 2 hrs before immunoprecipitates were washed 3 times with 1% NP40 lysis buffer. After addition of 2× sample buffer with 10 mM DTT, the samples were run on 4-12% Tris-glycine gels (Invitrogen). […] Proteins were detected by enhanced chemiluminescence (ECL-Plus, Amersham).
(§2) Human tumor cells were treated with increasing concentrations of rSema and analyzed for Met tyrosine phosphorylation and downstream activation of mitogen activated protein kinase (MAPK) upon HGF stimulation. […]

Met [4] = biological target: T2, Met; test: Met tyrosine phosphorylation in A549 cells (immunoprecipitation / phosphotyrosine immunoblot); type: cell-based; parameters: endogenous in cells; host or cells: A549 (lung carcinoma); details: A549 cells transfected with Met deletion mutants, vs mock
Procedure: as §1, §2
Target sequence in this assay (P08581 308-1390, one chain of several): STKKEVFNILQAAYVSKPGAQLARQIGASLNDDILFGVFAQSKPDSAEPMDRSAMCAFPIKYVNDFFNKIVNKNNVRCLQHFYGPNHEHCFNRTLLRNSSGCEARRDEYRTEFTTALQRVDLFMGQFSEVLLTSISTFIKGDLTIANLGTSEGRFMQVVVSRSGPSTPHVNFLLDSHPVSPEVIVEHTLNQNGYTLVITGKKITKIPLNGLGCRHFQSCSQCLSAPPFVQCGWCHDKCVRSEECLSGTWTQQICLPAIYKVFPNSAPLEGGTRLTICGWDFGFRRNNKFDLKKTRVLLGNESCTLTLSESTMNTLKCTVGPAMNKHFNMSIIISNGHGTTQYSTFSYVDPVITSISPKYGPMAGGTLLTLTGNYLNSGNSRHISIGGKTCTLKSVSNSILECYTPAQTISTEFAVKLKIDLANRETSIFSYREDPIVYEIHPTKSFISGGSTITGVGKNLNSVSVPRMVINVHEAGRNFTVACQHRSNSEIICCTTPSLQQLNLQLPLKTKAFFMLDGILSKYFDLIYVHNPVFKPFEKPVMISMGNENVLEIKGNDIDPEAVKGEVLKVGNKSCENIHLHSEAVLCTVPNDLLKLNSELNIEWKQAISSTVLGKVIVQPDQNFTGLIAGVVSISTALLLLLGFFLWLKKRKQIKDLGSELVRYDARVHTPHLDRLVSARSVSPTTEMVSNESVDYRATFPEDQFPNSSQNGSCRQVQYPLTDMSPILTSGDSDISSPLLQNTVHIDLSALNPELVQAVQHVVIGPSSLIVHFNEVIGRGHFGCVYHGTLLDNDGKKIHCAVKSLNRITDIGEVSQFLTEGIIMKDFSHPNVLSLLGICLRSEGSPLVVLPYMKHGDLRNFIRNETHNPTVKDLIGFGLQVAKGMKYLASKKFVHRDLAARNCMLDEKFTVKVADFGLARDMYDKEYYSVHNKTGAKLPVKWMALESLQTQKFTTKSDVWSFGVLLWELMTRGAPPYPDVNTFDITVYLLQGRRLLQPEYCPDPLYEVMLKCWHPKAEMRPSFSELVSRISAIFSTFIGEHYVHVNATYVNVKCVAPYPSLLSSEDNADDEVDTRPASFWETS

Molecule: HGF: Recombinant HGF, cognate ligand of the Met receptor; positive control
- binding to Met deletion mutants [1]: bound EC-WT alone
- binding to recombinant EC-Met and Sema domain proteins [2]: bound to recombinant EC-Met and Sema domain proteins
- gap closure in scrape assay (positive control) (H441 cells): closed the gap by Day 1

Molecule: scHGF (R494E): Single-chain HGF containing an R494E mutation [reference compound]
- binding to Met deletion mutants [1]: only binds EC-WT and not the Sema deleted mutants
- binding to recombinant EC-Met and Sema domain proteins [2]: bound to recombinant EC-Met and Sema domain proteins
- binding and activation of the Met receptor (Met [3]): binds and inhibits activation of the Met receptor

B1: EC-WT: membrane-bound extracellular Met construct containing the Sema domain, V5/His tagged, expressed by transfection (protein, UniProt P08581 25-932, looked up)
extracellular domain: ECKEALAKSEMNVNMKYQLPNFTAETPIQNVILHEHHIFLGATNYIYVLNEEDLQKVAEYKTGPVLEHPDCFPCQDCSSKANLSGGVWKDNINMALVVDTYYDDQLISCGSVNRGTCQRHVFPHNHTADIQSEVHCIFSPQIEEPSQCPDCVVSALGAKVLSSVKDRFINFFVGNTINSSYFPDHPLHSISVRRLKETKDGFMFLTDQSYIDVLPEFRDSYPIKYVHAFESNNFIYFLTVQRETLDAQTFHTRIIRFCSINSGLHSYMEMPLECILTEKRKKRSTKKEVFNILQAAYVSKPGAQLARQIGASLNDDILFGVFAQSKPDSAEPMDRSAMCAFPIKYVNDFFNKIVNKNNVRCLQHFYGPNHEHCFNRTLLRNSSGCEARRDEYRTEFTTALQRVDLFMGQFSEVLLTSISTFIKGDLTIANLGTSEGRFMQVVVSRSGPSTPHVNFLLDSHPVSPEVIVEHTLNQNGYTLVITGKKITKIPLNGLGCRHFQSCSQCLSAPPFVQCGWCHDKCVRSEECLSGTWTQQICLPAIYKVFPNSAPLEGGTRLTICGWDFGFRRNNKFDLKKTRVLLGNESCTLTLSESTMNTLKCTVGPAMNKHFNMSIIISNGHGTTQYSTFSYVDPVITSISPKYGPMAGGTLLTLTGNYLNSGNSRHISIGGKTCTLKSVSNSILECYTPAQTISTEFAVKLKIDLANRETSIFSYREDPIVYEIHPTKSFISGGSTITGVGKNLNSVSVPRMVINVHEAGRNFTVACQHRSNSEIICCTTPSLQQLNLQLPLKTKAFFMLDGILSKYFDLIYVHNPVFKPFEKPVMISMGNENVLEIKGNDIDPEAVKGEVLKVGNKSCENIHLHSEAVLCTVPNDLLKLNSELNIEWKQAISSTVLGKVIVQPDQNFT
modifications: extracellular domain V5/His tag, membrane-bound
- phospho-MAPK in transfectants (MAPK): attenuation
- endogenous Met tyrosine phosphorylation in transfectants (Met [4]): attenuation
